In publication PMC10663500, “High-throughput analysis system of interaction kinetics for data-driven antibody design” (Scientific Reports, 2023):
Where a chain is given by its changes, count along the chain named.

B1: toripalimab Fab L.S26Y (Fab, V domains shown)
VH: QGQLVQSGAEVKKPGASVKVSCKASGYTFTDYEMHWVRQAPIHGLEWIGVIESETGGTAYNQKFKGRVTITADKSTSTAYMELSSLRSEDTAVYYCAREGITTVATTYYWYFDVWGQGTTVTVSS
VL: DVVMTQSPLSLPVTLGQPASISCRSYQSIVHSNGNTYLEWYLQKPGQSPQLLIYKVSNRFSGVPDRFSGSGSGTDFTLKISRVEAEDVGVYYCFQGSHVPLTFGQGTKLEIK
notes: as the heavy chain of Sm3; light chain of Sm3 with this change; numbers count from the chain's first residue; source: Brevibacillus, culture supernatant (ammonium sulfate precipitate); not shown: 6xHis, C-terminal, kept; 6xHN, C-terminal, kept
B2: toripalimab Fab L.N35A (Fab, V domains shown)
VH: B1 VH
VL: B1 VL with Y26S, N35A
notes: as for B1
B3: toripalimab Fab L.N35Y (Fab, V domains shown)
VH: B1 VH
VL: B1 VL with Y26S, N35Y
notes: as for B1
B4: toripalimab Fab L.T36Y (Fab, V domains shown)
VH: B1 VH
VL: B1 VL with Y26S, T36Y
notes: as for B1
B5: toripalimab Fab L.K55Y (Fab, V domains shown)
VH: B1 VH
VL: B1 VL with Y26S, K55Y
notes: as for B1
B6: toripalimab Fab L.I29A (Fab, V domains shown)
VH: B1 VH
VL: B1 VL with Y26S, I29A
notes: as for B1
B7: toripalimab Fab L.V30Y (Fab, V domains shown)
VH: B1 VH
VL: B1 VL with Y26S, V30Y
notes: as for B1
B8: toripalimab Fab L.I29Y (Fab, V domains shown)
VH: B1 VH
VL: B1 VL with Y26S, I29Y
notes: as for B1
B9: toripalimab Fab L.V56Y (Fab, V domains shown)
VH: B1 VH
VL: B1 VL with Y26S, V56Y
notes: as for B1
B10: toripalimab Fab L.S32A (Fab, V domains shown)
VH: B1 VH
VL: B1 VL with Y26S, S32A
notes: as for B1
B11: toripalimab Fab H.V50A (Fab, V domains shown)
VH: B1 VH with V50A
VL: B1 VL with Y26S
notes: heavy chain of Sm3 with this change; numbers count from the chain's first residue; as the light chain of Sm3; source: Brevibacillus, culture supernatant (ammonium sulfate precipitate); not shown: 6xHis, C-terminal, kept; 6xHN, C-terminal, kept
B12: toripalimab Fab L.L38A (Fab, V domains shown)
VH: B1 VH
VL: B1 VL with Y26S, L38A
notes: as for B1
B13: toripalimab Fab L.V56A (Fab, V domains shown)
VH: B1 VH
VL: B1 VL with Y26S, V56A
notes: as for B1
B14: toripalimab Fab L.G34Y (Fab, V domains shown)
VH: B1 VH
VL: B1 VL with Y26S, G34Y
notes: as for B1
B15: toripalimab Fab L.S32Y (Fab, V domains shown)
VH: B1 VH
VL: B1 VL with Y26S, S32Y
notes: as for B1
B16: toripalimab Fab L.K55A (Fab, V domains shown)
VH: B1 VH
VL: B1 VL with Y26S, K55A
notes: as for B1
B17: toripalimab Fab L.N33Y (Fab, V domains shown)
VH: B1 VH
VL: B1 VL with Y26S, N33Y
notes: as for B1
B18: toripalimab Fab L.V30A (Fab, V domains shown)
VH: B1 VH
VL: B1 VL with Y26S, V30A
notes: as for B1
B19: toripalimab Fab L.S28A (Fab, V domains shown)
VH: B1 VH
VL: B1 VL with Y26S, S28A
notes: as for B1
B20: toripalimab Fab L.S28Y (Fab, V domains shown)
VH: B1 VH
VL: B1 VL with Y26S, S28Y
notes: as for B1
B21: toripalimab Fab L.T36A (Fab, V domains shown)
VH: B1 VH
VL: B1 VL with Y26S, T36A
notes: as for B1
B22: toripalimab Fab L.N33A (Fab, V domains shown)
VH: B1 VH
VL: B1 VL with Y26S, N33A
notes: as for B1
B23: toripalimab Fab L.Q27Y (Fab, V domains shown)
VH: B1 VH
VL: B1 VL with Y26S, Q27Y
notes: as for B1
B24: toripalimab Fab H.M34Y (Fab, V domains shown)
VH: B1 VH with M34Y
VL: B1 VL with Y26S
notes: as for B11
B25: toripalimab Fab L.G34A (Fab, V domains shown)
VH: B1 VH
VL: B1 VL with Y26S, G34A
notes: as for B1
B26: toripalimab Fab L.Q27A (Fab, V domains shown)
VH: B1 VH
VL: B1 VL with Y26S, Q27A
notes: as for B1

Biological target: T1, mouse programmed cell death protein 1 Fc fusion protein (mPD-1-Fc), mPD-1 C60S (aa 25-167) (Mus musculus, UniProt Q02242, stabilised)
T1 construct: not cleaved; source: Expi293F, purified (Protein A, SEC; dimeric fraction); not shown: Fc (human), C-terminal, kept
Assay: SPR; Carterra LSA; Fab from the ammonium sulfate precipitate of the culture supernatant immobilised on a NiHC200M chip; hPD-1 (1-1024 nM) or mPD-1-Fc (4-1024 nM) as analyte, fourfold dilution series, no regeneration; HBS-EP pH 7.4, 25 °C; medians over the spots of a construct, KD = koff/kon
Conditions: one partner purified
Procedure, shortened: (§1)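 Fabs from Brevibacillus culture supernatants were ammonium sulfate-precipitated, redissolved in HBS-EP and captured in duplicate on a NiHC200M chip (Carterra LSA, 25 °C). Human PD-1 (1–1024 nM) or mouse PD-1-Fc (4–1024 nM) flowed as fourfold series without regeneration, with 10 min association and 5 min dissociation; unconfirmed binders were set to kon 10^3 […], koff 10^−2 s^−1. Rates came from kdka model fits (slow- or fast-dissociation settings, best fit); KD is koff/kon from per-construct medians.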

Row | Binder | Kd | koff | kon
1 | B1 | 152 nM | 0.00675 s⁻¹ | 44500 M⁻¹ s⁻¹
2 | B2 | 189 nM | 0.00781 s⁻¹ | 41200 M⁻¹ s⁻¹
3 | B3 | 194 nM | 0.00881 s⁻¹ | 45500 M⁻¹ s⁻¹
4 | B4 | 164 nM | 0.00757 s⁻¹ | 46100 M⁻¹ s⁻¹
5 | B5 | 235 nM | 0.0094 s⁻¹ | 40000 M⁻¹ s⁻¹
6 | B6 | 64 nM | 0.00268 s⁻¹ | 41800 M⁻¹ s⁻¹
7 | B7 | 173 nM | 0.00719 s⁻¹ | 41500 M⁻¹ s⁻¹
8 | B8 | 80.6 nM | 0.00575 s⁻¹ | 71400 M⁻¹ s⁻¹
9 | B9 | 290 nM | 0.0104 s⁻¹ | 35800 M⁻¹ s⁻¹
10 | B10 | 185 nM | 0.0077 s⁻¹ | 41600 M⁻¹ s⁻¹
11 | B11 | 728 nM | 0.0237 s⁻¹ | 32500 M⁻¹ s⁻¹
12 | B12 | 121 nM | 0.00533 s⁻¹ | 44000 M⁻¹ s⁻¹
13 | B13 | 202 nM | 0.00784 s⁻¹ | 38700 M⁻¹ s⁻¹
14 | B14 | 154 nM | 0.00613 s⁻¹ | 39900 M⁻¹ s⁻¹
15 | B15 | 95.6 nM | 0.00346 s⁻¹ | 36100 M⁻¹ s⁻¹
16 | B16 | 182 nM | 0.00821 s⁻¹ | 45200 M⁻¹ s⁻¹
17 | B17 | 192 nM | 0.00979 s⁻¹ | 50900 M⁻¹ s⁻¹
18 | B18 | 255 nM | 0.00954 s⁻¹ | 37400 M⁻¹ s⁻¹
19 | B19 | 96.3 nM | 0.00303 s⁻¹ | 31400 M⁻¹ s⁻¹
20 | B20 | 137 nM | 0.00438 s⁻¹ | 31900 M⁻¹ s⁻¹
21 | B21 | 331 nM | 0.0155 s⁻¹ | 46700 M⁻¹ s⁻¹
22 | B22 | 278 nM | 0.0135 s⁻¹ | 48400 M⁻¹ s⁻¹
23 | B23 | 216 nM | 0.0122 s⁻¹ | 56500 M⁻¹ s⁻¹
24 | B24 | 164 nM | 0.00793 s⁻¹ | 48500 M⁻¹ s⁻¹
25 | B25 | 202 nM | 0.00961 s⁻¹ | 47500 M⁻¹ s⁻¹
26 | B26 | 219 nM | 0.00876 s⁻¹ | 40100 M⁻¹ s⁻¹

Biological target: T2, human programmed cell death protein 1 (hPD-1) C93S (aa 24-167) (Homo sapiens, UniProt Q15116, C93S)
T2 construct: made as a fusion with a TEV site and human Fc; the Fc was cut off with TEV protease; source: Expi293F, purified (Protein A, TEV cleavage of Fc, SEC; monomer fractions); not shown: Fc (human), C-terminal, cleaved
T2 sequence (Q15116 24-167 C93S): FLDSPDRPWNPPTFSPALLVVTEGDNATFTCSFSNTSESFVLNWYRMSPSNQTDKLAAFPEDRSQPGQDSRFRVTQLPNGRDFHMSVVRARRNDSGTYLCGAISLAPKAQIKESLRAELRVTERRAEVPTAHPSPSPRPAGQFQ
Assay: as above
Conditions: one partner purified
Procedure, shortened: as §1

Row | Binder | Kd | koff | kon
27 | B1 | < 0.573 nM | < 1e-05 s⁻¹ | 17500 M⁻¹ s⁻¹
28 | B2 | < 1.31 nM | < 1e-05 s⁻¹ | 7640 M⁻¹ s⁻¹
29 | B3 | < 0.431 nM | < 1e-05 s⁻¹ | 23200 M⁻¹ s⁻¹
30 | B4 | < 0.372 nM | < 1e-05 s⁻¹ | 26900 M⁻¹ s⁻¹
31 | B5 | 1.4 nM | 1.3e-05 s⁻¹ | 9280 M⁻¹ s⁻¹
32 | B6 | < 0.466 nM | < 1e-05 s⁻¹ | 21500 M⁻¹ s⁻¹
33 | B7 | 0.91 nM | 1.6e-05 s⁻¹ | 17600 M⁻¹ s⁻¹
34 | B8 | 30.4 nM | 0.000378 s⁻¹ | 12400 M⁻¹ s⁻¹
35 | B9 | < 1.47 nM | < 1e-05 s⁻¹ | 6790 M⁻¹ s⁻¹
36 | B10 | < 1.35 nM | < 1e-05 s⁻¹ | 7410 M⁻¹ s⁻¹
37 | B11 | 1.66 nM | 2.65e-05 s⁻¹ | 15900 M⁻¹ s⁻¹
38 | B12 | < 1.11 nM | < 1e-05 s⁻¹ | 8980 M⁻¹ s⁻¹
39 | B13 | < 0.489 nM | < 1e-05 s⁻¹ | 20400 M⁻¹ s⁻¹
40 | B14 | < 0.445 nM | < 1e-05 s⁻¹ | 22500 M⁻¹ s⁻¹
41 | B15 | < 0.678 nM | < 1e-05 s⁻¹ | 14800 M⁻¹ s⁻¹
42 | B16 | < 1.18 nM | < 1e-05 s⁻¹ | 8480 M⁻¹ s⁻¹
43 | B17 | < 0.585 nM | < 1e-05 s⁻¹ | 17100 M⁻¹ s⁻¹
44 | B18 | 2.21 nM | 6.23e-05 s⁻¹ | 28200 M⁻¹ s⁻¹
45 | B19 | < 0.632 nM | < 1e-05 s⁻¹ | 15800 M⁻¹ s⁻¹
46 | B20 | < 0.792 nM | < 1e-05 s⁻¹ | 12600 M⁻¹ s⁻¹
47 | B21 | < 1.51 nM | < 1e-05 s⁻¹ | 6610 M⁻¹ s⁻¹
48 | B22 | < 0.341 nM | < 1e-05 s⁻¹ | 29300 M⁻¹ s⁻¹
49 | B23 | < 0.342 nM | < 1e-05 s⁻¹ | 29200 M⁻¹ s⁻¹
50 | B24 | < 0.414 nM | < 1e-05 s⁻¹ | 24200 M⁻¹ s⁻¹
51 | B25 | 2.35 nM | 4.8e-05 s⁻¹ | 20500 M⁻¹ s⁻¹
52 | B26 | < 0.831 nM | < 1e-05 s⁻¹ | 12000 M⁻¹ s⁻¹
